Reference: publication PMC5991677, “3-methylcrotonyl Coenzyme A (CoA) carboxylase complex is involved in the Xanthomonas citri subsp. citri lifestyle during citrus infection” (PLoS ONE, 2018)

Experiments:
[1] = biological target: His-AccD, β subunit of the 3-methylcrotonyl-CoA carboxylase (MCC) complex of Xanthomonas citri subsp. citri (XAC0264) (Xanthomonas citri subsp. citri) (UniProt Q8PJ30); experiment: SEC; Superdex S200, 500 μg of AccC, AccD or the complex (preincubated mixture of both) loaded; 50 mM potassium phosphate pH 7.6, 50 mM NaCl, 0.5 mM DTT; calibrated with mass standards; fractions of the complex analysed by SDS-PAGE
[2] = tested on: CC(C)=CC(=O)SCCNC(=O)CCNC(=O)[C@H](O)C(C)(C)COP(=O)(O)OP(=O)(O)OC[C@H]1O[C@@H](n2cnc3c(N)ncnc32)[C@H](O)[C@@H]1OP(=O)(O)O; experiment: purified protein; conditions: co-substrates ATP and bicarbonate, Mg; 3-methylcrotonyl-CoA varied 1-1000 μM; enzyme complex 0.05 μM (Fig 4 legend says 0.5 μM)

Substance | stoichiometry N [1] | Km [2] [µM]
His-AccC, α subunit of the 3-methylcrotonyl-CoA carboxylase (MCC) complex of Xanthomonas citri subsp. citri (XAC0263) (from UniProt A0AAI8ER48 1-675) (natural protein) | 1 | –
His-AccD, β subunit of the 3-methylcrotonyl-CoA carboxylase (MCC) complex of Xanthomonas citri subsp. citri (XAC0264) (from UniProt Q8PJ30 1-295) (natural protein) | 6 | –
MCC complex (His-AccC / His-AccD, α6β6) (Xanthomonas citri subsp. citri 306) | – | 71.4
